From the supplement of paper PMC5998384 come the findings set out here.

Data set [1] concerns HeLa Kyoto. Description: solubility change mitosis vs G1/S (difference of NP-40 vs SDS log2 ratios) (log2 ratio difference); higher = more soluble in mitosis.
Data set [2] deals with HeLa Kyoto. Description: thermal stability score vs G1/S (z-score of summed log2 fold changes over temperatures); higher = more thermally stable than in G1/S.
The subject of data set [3] is HeLa Kyoto. Description: melting temperature (median over replicates), in situ; higher = more thermally stable.
Data set [4] relates to HeLa Kyoto. Description: solubility in G1/S (NP-40 vs SDS abundance) (log2 ratio); higher = more soluble. Particulars: cell cycle stage: G1/S.
[5] abbreviates: cell cycle stage: early G1 (4.5 h after nocodazole release).
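For melting temperature (median over replicates), in situ in this document: HeLa Kyoto cells synchronized by double thymidine or nocodazole block, proteins quantified by TMT10plex mass spectrometry, three independent biological replicates.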
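For solubility change mitosis vs G1/S (difference of NP-40 vs SDS log2 ratios) in this document: synchronized HeLa Kyoto cells (double thymidine block for G1/S, nocodazole release for mitosis), protein amounts in NP-40 versus SDS lysates quantified by mass spectrometry, three biological replicates.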
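For solubility in G1/S (NP-40 vs SDS abundance) in this document: HeLa Kyoto cells arrested at G1/S by double thymidine block, proteins quantified by TMT10plex mass spectrometry in mild NP-40 versus SDS extracts, three biological replicates.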
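For thermal stability score vs G1/S (z-score of summed log2 fold changes over temperatures) in this document: synchronized HeLa Kyoto cells, proteins quantified by TMT10plex mass spectrometry, three biological replicates, mitosis taken 0.5 h after nocodazole release, G1/S directly after double thymidine block.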

For “MAECGASGSGSSGDSLDKSITLPPDEIFRNLENAKRFAIDIGGSLTKLAYYSTVQHKVAKVRSFDHSGKDTEREHEPPYEISVQEEITARLHFIKFENTYIEACLDFIKDHLVNTETKVIQATGGGAYKFKDLIEEKLRLKVDKEDVMTCLIKGCNFVLKNIPHEAFVYQKDSDPEFRFQTNHPHIFPYLLVNIGSGVSIVKVETEDRFEWVGGSSIGGGTFWGLGALLTKTKKFDELLHLASRGQHSNVDMLVRDVYGGAHQTLGLSGNLIASSFGKSATADQEFSKEDMAKSLLHMISNDIGQLACLHARLHSLDRVYFGGFFIRGHPVTMRTITYSINFFSKGEVQALFLRHEGYLGAIGAFLKGAEQDNPNQYSWGENYAGSSGLMSASPELGPAQRARSGTFDLLEMDRLERPLVDLPLLLDPPSYVPDTVDLTDDALARKYWLTCFEEALDGVVKRAVASQPDSVDAAERAEKFRQKYWNKLQTLRQQPFAYGTLTVRSLLDTREHCLNEFNFPDPYSKVKQRENGVALRCFPGVVRSLDALGWEERQLALVKGLLAGNVFDWGAKAVSAVLESDPYFGFEEAKRKLQERPWLVDSYSEWLQRLKGPPHKCALIFADNSGIDIILGVFPFVRELLLRGTEVILACNSGPALNDVTHSESLIVAERIAGMDPVVHSALQEERLLLVQTGSSSPCLDLSRLDKGLAALVRERGADLVVIEGMGRAVHTNYHAALRCESLKLAVIKNAWLAERLGGRLFSVIFKYEVPAE [PANK4]”, the “solubility change mitosis (log2)” value in the data set with HeLa Kyoto [1] was -0.0425. Besides, the thermal stability score was 0.0566 in the data set on HeLa Kyoto [2] (setting [5]) and -0.284 with HeLa Kyoto [2] (cell cycle stage: mitosis). The melting temperature in the data set with HeLa Kyoto [3] (cell cycle stage: G1/S) amounted to 52 °C; with HeLa Kyoto [3] (cell cycle stage: mitosis), 51.7 °C. In addition, the “solubility in G1/S (log2)” value in the data set with HeLa Kyoto [4] was -0.125.
Regarding “MAEEEVAKLEKHLMLLRQEYVKLQKKLAETEKRCALLAAQANKESSSESFISRLLAIVADLYEQEQYSDLKIKVGDRHISAHKFVLAARSDSWSLANLSSTKELDLSDANPEVTMTMLRWIYTDELEFREDDVFLTELMKLANRFQLQLLRERCEKGVMSLVNVRNCIRFYQTAEELNASTLMNYCAEIIASHWDDLRKEDFSSMSAQLLYKMIKSKTEYPLHKAIKVEREDVVFLYLIEMDSQLPGKLNEADHNGDLALDLALSRRLESIATTLVSHKADVDMVDKSGWSLLHKGIQRGDLFAATFLIKNGAFVNAATLGAQETPLHLVALYSSKKHSADVMSEMAQIAEALLQAGANPNMQDSKGRTPLHVSIMAGNEYVFSQLLQCKQLDLELKDHEGSTALWLAVQHITVSSDQSVNPFEDVPVVNGTSFDENSFAARLIQRGSHTDAPDTATGNCLLQRAAGAGNEAAALFLATNGAHVNHRNKWGETPLHTACRHGLANLTAELLQQGANPNLQTEEALPLPKEAASLTSLADSVHLQTPLHMAIAYNHPDVVSVILEQKANALHATNNLQIIPDFSLKDSRDQTVLGLALWTGMHTIAAQLLGSGAAINDTMSDGQTLLHMAIQRQDSKSALFLLEHQADINVRTQDGETALQLAIRNQLPLVVDAICTRGADMSVPDEKGNPPLWLALANNLEDIASTLVRHGCDATCWGPGPGGCLQTLLHRAIDENNEPTACFLIRSGCDVNSPRQPGANGEGEEEARDGQTPLHLAASWGLEETVQCLLEFGANVNAQDAEGRTPIHVAISSQHGVIIQLLVSHPDIHLNVRDRQGLTPFACAMTFKNNKSAEAILKRESGAAEQVDNKGRNFLHVAVQNSDIESVLFLISVHANVNSRVQDASKLTPLHLAVQAGSEIIVRNLLLAGAKVNELTKHRQTALHLAAQQDLPTICSVLLENGVDFAAVDENGNNALHLAVMHGRLNNIRVLLTECTVDAEAFNLRGQSPLHILGQYGKENAAAIFDLFLECMPGYPLDKPDADGSTVLLLAYMKGNANLCRAIVRSGARLGVNNNQGVNIFNYQVATKQLLFRLLDMLSKEPPWCDGSYCYECTARFGVTTRKHHCRHCGRLLCHKCSTKEIPIIKFDLNKPVRVCNICFDVLTLGGVS [ANKFY1]”, in the data set with HeLa Kyoto [1], the “solubility change mitosis (log2)” value was -0.175. The thermal stability score with HeLa Kyoto [2] (setting [5]) came to 0.358; in the data set on HeLa Kyoto [2] (cell cycle stage: mitosis), 1.34. In addition, the melting temperature in the data set with HeLa Kyoto [3] (cell cycle stage: G1/S) came out at 48.8 °C; with HeLa Kyoto [3] (cell cycle stage: mitosis) it was 49.3 °C. For the same sequence, in the data set with HeLa Kyoto [4], the “solubility in G1/S (log2)” value was -0.0647.
On to “MAEFTSYKETASSRHLRFKLQSLSRRLDELEEATKNLQKAEDELLDLQDKVIQAEGSNSSMLAEIEVLRQRVLRIEGKDEEIKRAEDLCRLMKEKLEEEENLTRELKSEIERLQKRMAELEKLEEAFSRSKNDCTQLCLSLNEERNLTKKISSELEMLRVKVKELESSEDRLDKTEQSLASELEKLKSLTLSFVSERKYLNEKEKENEKLIKELTQKLEQNKKMNRDYTRNASNLERNDLRIEDGISSTLPSKESRRKGGLDYLKQVENETRNKSENEKNRNQEDNKVKDLNQEIEKLKTQIKHFESLEEELKKMKSKNNDLQDNYLSEQNKNKLLASQLEEIKLQIKKQKELENGEVEGEDAFLSSKGRHERTKFRGHGSEASVSKHTARELSPQHKRERLRNREFALNNENYSLSNRQVSSPSFTNRRAAKASHMGVSTDSGTQETKKTEDRFVPGSSQSEGKKSREQPSVLSRYPPAAQEHSKAWKGTSKPGTESGLKGKVEKTTRTFSDTTHGSVPSDPLGRADKASDTSSETVFGKRGHVLGNGSQVTQAANSGCSKAIGALASSRRSSSEGLSKGKKAANGLEADNSCPNSKAPVLSKYPYSCRSQENILQGFSTSHKEGVNQPAAVVMEDSSPHEALRCRVIKSSGREKPDSDDDLDIASLVTAKLVNTTITPEPEPKPQPNSREKAKTRGAPRTSLFENDKDAGMENESVKSVRASTNTMELPDTNGAGVKSQRPFSPREALRSRAIIKPVIVDKDVKKIMGGSGTETTLEKQKPVSKPGPNKVTSSITIYPSDSSSPRAAPGEALRERHTSTSNIQVGLAELTSVSNHVSSPFELSIHKHDITLQLAEAERMADGPLKDRPETVVSRSSIIIKPSDPVERNSHAPPAETIRWKSHSAPSEVGFSDARHVTVRNAWKSRRDLKSLEDPPTRIGKNVESTNSNAYTQRSSTDFSELEQPRSCLFEQGTRRVGPSSGDAPEPSSRRTQSSLTVSEVLTRRNRVGDTITVAAWNHSASMEEEGEDCTLSVYRQLHNSLDPSELPGKQGLPESGRVRAEERLRPTRPCAEEN [LUZP1]”, for which the “solubility change mitosis (log2)” value in the data set on HeLa Kyoto [1] was found to be 0.14. Moreover, the figures for the thermal stability score in the data set on HeLa Kyoto [2] (setting [5]) and in the data set with HeLa Kyoto [2] (cell cycle stage: mitosis) were 0.392 and 0.722, respectively. For the same sequence, the melting temperature with HeLa Kyoto [3] (cell cycle stage: G1/S) is 51.8 °C; with HeLa Kyoto [3] (cell cycle stage: mitosis), 52.3 °C. For the same sequence, the “solubility in G1/S (log2)” value in the data set on HeLa Kyoto [4] is -0.781.
